Each block holds one binder with its values, some of them ahead of it.
Assays:
[1] = biological target: T1, Peroxiredoxin 6 (PRDX6), native, human kidney (human (endogenous in human kidney)), P30041; experiment: non-reducing SDS-PAGE with immunoblot; settings: remark: other sources report otherwise
T1 chain: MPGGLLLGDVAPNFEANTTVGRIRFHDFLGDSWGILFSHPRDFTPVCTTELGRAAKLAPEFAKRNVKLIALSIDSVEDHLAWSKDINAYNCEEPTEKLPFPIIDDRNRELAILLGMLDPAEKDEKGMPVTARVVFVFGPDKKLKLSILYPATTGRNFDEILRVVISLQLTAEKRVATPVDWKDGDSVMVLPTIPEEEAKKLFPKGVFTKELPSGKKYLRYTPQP

[2] = biological target: the molecule itself; experiment: non-reducing SDS-PAGE with Coomassie stain
[3] = biological target: the molecule itself; experiment: non-reducing SDS-PAGE with immunoblot

stoichiometry N [1]: 2
B1: Peroxiredoxin 6 (PRDX6), native, human kidney, P30041 1-224 (natural protein)
chain: MPGGLLLGDVAPNFEANTTVGRIRFHDFLGDSWGILFSHPRDFTPVCTTELGRAAKLAPEFAKRNVKLIALSIDSVEDHLAWSKDINAYNCEEPTEKLPFPIIDDRNRELAILLGMLDPAEKDEKGMPVTARVVFVFGPDKKLKLSILYPATTGRNFDEILRVVISLQLTAEKRVATPVDWKDGDSVMVLPTIPEEEAKKLFPKGVFTKELPSGKKYLRYTPQP

B2: N-terminal histidine-tagged PRDX6 with cysteine 47 changed to alanine (HisPRDX6-C47A) (natural protein, UniProt P30041 1-224, looked up)
chain: MPGGLLLGDVAPNFEANTTVGRIRFHDFLGDSWGILFSHPRDFTPVATTELGRAAKLAPEFAKRNVKLIALSIDSVEDHLAWSKDINAYNCEEPTEKLPFPIIDDRNRELAILLGMLDPAEKDEKGMPVTARVVFVFGPDKKLKLSILYPATTGRNFDEILRVVISLQLTAEKRVATPVDWKDGDSVMVLPTIPEEEAKKLFPKGVFTKELPSGKKYLRYTPQP
stoichiometry N [2]: 2

B3: Peroxiredoxin 6 (PRDX6), native, mouse kidney (natural protein, mouse (endogenous in mouse kidney), UniProt O08709 1-224, looked up)
chain: MPGGLLLGDEAPNFEANTTIGRIRFHDFLGDSWGILFSHPRDFTPVCTTELGRAAKLAPEFAKRNVKLIALSIDSVEDHLAWSKDINAYNGETPTEKLPFPIIDDKGRDLAILLGMLDPVEKDDNNMPVTARVVFIFGPDKKLKLSILYPATTGRNFDEILRVVDSLQLTGTKPVATPVDWKKGESVMVVPTLSEEEAKQCFPKGVFTKELPSGKKYLRYTPQP
stoichiometry N [3]: 2

— paper PMC4705439 (Kidney international, 2016)
